This experiment has as its target EGFP-N-Talin1-C-mCherry (UniProt P26039). Nature of the experiment: single-molecule photobleaching step counting and point spread function fit (TIRF microscopy); living CV1 cells with low expression of EGFP-Talin1-mCherry; EGFP spots more than 500 nm from other EGFPs; bleaching steps counted and the spot shape fitted to a single or a dimeric PSF. The conditions noted are these: remark: other sources report otherwise.

EGFP-N-Talin1-C-mCherry, P26039 1-2541: the stoichiometry N (in general, the number of molecules, sites or subunits per partner or assembly) worked out at 2.
